# Read-outs that look alike come from different tables or passages of the source.
# B1: 10E8 unmutated common ancestor antibody (antibody, V domains shown)
# VH: not shown
# VL: SSELTQDPAVSVALGQTVRITCQGDSLRSYYASWYQQKPGQAPVLVIYGKNNRPSGIPDRFSGSSSGNTASLTITGAQAEDEADYYCNSRDSSGNHLVVFGGGTKLTVL
# notes: also called 10E8 UCA; proposed 10E8 UCA; source: FreeStyle 293F cells or ExpiCHO (high-throughput), purified (protein A)
# B2: 10E8-iGL2 (antibody, V domains shown)
# VH: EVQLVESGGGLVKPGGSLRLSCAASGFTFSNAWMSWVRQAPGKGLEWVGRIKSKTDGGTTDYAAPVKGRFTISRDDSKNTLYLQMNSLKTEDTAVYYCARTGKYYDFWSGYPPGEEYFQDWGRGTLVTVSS
# VL: SSELTQDPAVSVALGQTVRITCQGDSLRSYYASWYQQKPGQAPVLVIYGKNNRPSGIPDRFSGSSSGNTASLTITGAQAEDEADYYCNSRDSSGNHLWVFGGGTKLTVL
# notes: source: FreeStyle 293F or ExpiCHO, purified (protein A)
# B3: 10E8-iGL1 (antibody, V domains shown)
# VH: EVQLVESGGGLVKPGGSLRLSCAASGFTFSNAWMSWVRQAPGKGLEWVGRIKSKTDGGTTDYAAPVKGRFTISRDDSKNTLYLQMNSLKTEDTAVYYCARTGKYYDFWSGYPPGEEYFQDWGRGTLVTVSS
# VL: SSELTQDPAVSVALGQTVRITCQGDSLRSYYASWYQQKPGQAPVLVIYGKNNRPSGIPDRFSGSSSGNTASLTITGAQAEDEADYYCSSRDKSGSRLSVFGGGTKLTVL
# notes: as for B2
# B4: NHP W3-01 Fab (Fab, V domains shown)
# VH: QVQLQESGPGLVKPSETLSLTCAVSGGSFSSDWWGWIRQPPGKGLEWIGTIYGSGGSNYLNPSLKSRVTLSVDTSKNQFSLRLSSVTAADTAVYYCARGSGRYNIWTGYYTPFDAFDFWGRGLRVTVSS
# VL: SYELTQPPSMSVSPGQTARITCGGDNLGSKYVHWYQQKPAQAPVLVIYYDSDRPSGIPERFSGSKSGNTATLTISGVEAGDEADYYCQVWDSSSDHYIFGAGTRLTVL
# notes: also called 10E8-GT10.2-induced macaque antibody with a YxIW motif from week 3
# B5: NHP-10E8_MPER-GT10v55_W21-12 (antibody, V domains shown)
# VH: EVQLVESGGGLVQPGGSLRLSCAASGFTFSSYGMHWVRQAPGKGLEWVAVIWYDGSKKYYADSVKDRFTISRDNSKNMLYLQMNNLKFEDTAVYYCARVAPDYDFWSGSYTYSGLDSWGQGVVVTVSS
# VL: DIQMTQSPSSLSASVGDTVTITCRASQSISSWLDWYQQKPGKAPKLLIYKASNLQSGVPSRFSGSGSGTHFTLTISSLQPEDFATYYCLQYNSSPYSFGQGTKVEIK
# B6: mature 10E8 broadly neutralizing antibody (antibody, V domains shown)
# VH: EVQLVESGGGLVKPGGSLRLSCSASGFDFDNAWMTWVRQPPGKGLEWVGRITGPGEGWSVDYAAPVEGRFTISRLNSINFLYLEMNNLRMEDSGLYFCARTGKYYDFWSGYPPGEEYFQDWGRGTLVTVSS
# VL: SYELTQETGVSVALGRTVTITCRGDSLRSHYASWYQKKPGQAPILLFYGKNNRPSGVPDRFSGSASGNRASLTISGAQAEDDAEYYCSSRDKSGSRLSVFGGGTKLTVL
# notes: also called 10E8 bnAb; source: FreeStyle 293F cells or ExpiCHO (high-throughput), purified (protein A)
# B7: 10E8 (antibody, V domains shown)
# VH: EVQLVESGGGLVKPGGSLRLSCSASGFDFDNAWMTWVRQPPGKGLEWVGRITGPGEGWSVDYAAPVEGRFTISRLNSINFLYLEMNNLRMEDSGLYFCARTGKYYDFWSGYPPGEEYFQDWGRGTLVTVSS
# VL: SYELTQETGVSVALGRTVTITCRGDSLRSHYASWYQKKPGQAPILLFYGKNNRPSGVPDRFSGSASGNRASLTISGAQAEDDAEYYCSSRDKSGSRLSVFGGGTKLTVL
# notes: also called mature 10E8; 10E8 bnAb; source: FreeStyle 293F or ExpiCHO, purified (protein A)
# B8: MPER_HuGL-106 (MPER-102) (antibody, V domains shown)
# VH: EVQLVESGGGLVQPGRSLRLSCTASGFTFGDYAMSWVRQAPGKGLEWVGFIRSKAYGGTTEYAASVKGRFTISRDDSKSIAYLQMNSLKTEDTAVYYCTRDKVGYDFWSGDYYYYGMDVWGQGTTVTVSS
# VL: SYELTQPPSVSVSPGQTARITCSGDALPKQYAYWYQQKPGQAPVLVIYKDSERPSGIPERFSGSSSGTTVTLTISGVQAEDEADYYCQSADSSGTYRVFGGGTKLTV
# B9: NHP-10E8_MPER-GT10v55_W26-06 (antibody, V domains shown)
# VH: QVQLQESGPGLVKPSETLSLTCAVSGDSISSGYYYWSWIRQPPGKGLEWIGYITYSGSTSYNPSLKSQVTISRDTAKNQFSLKLSSVTAADTAVYYCARGGTYYNFWSDGSPQYNRFGFWGPGVPVTVSS
# VL: DIVMTQTPLSLPVTPGEPASISCRSSQSLLHSEDGNTYLDWYLQKPGQSPQLLIYEVSNRASGVPDRFSGSGSDTDFTLKISRVEAEDVGVYYCMQGLEFPLTFGGGTKVELK
# B10: NHP-10E8_MPER-GT10v55_W21-19 (antibody, V domains shown)
# VH: QVQLQESGPGLLKPSDTLSLICAVSGGSISGGYGWGWIRQPPGKGLEWIGSIYSSNGNTYYNPSLKSRVTISTDTSKNQFSLKLNSVTAADTAVYYCGSGGLSYSFWSGYQSLHRLHVWGPGVLVTVSS
# VL: DIVMTQTPLSLPVTPGEPASISCRSSQSLLDSEDGNTYLDWYLQKPGQSPQLLIYEVSKRASGVPDRFSGSGSDTDFTLKISRVEAEDVGVYYCMQGLEFPFTFGPGTKLDIK
# How the values were obtained:
# [1] = molecular target: T1, 10E8-GT10.1 epitope scaffold (synthetic construct, circularly …, N-linked glycosylation sites added (positions not given)); test: SPR; Carterra LSA, HC30M or CMDP chips; antibodies as ligands held by an amine-coupled capture antibody, scaffolds as analytes (monovalent Kd); 1x HBS-EP+ pH 7.4 with 1 mg/ml bovine serum albumin; Langmuir model; values of the main text figures; details: both partners purified
# T1 chain: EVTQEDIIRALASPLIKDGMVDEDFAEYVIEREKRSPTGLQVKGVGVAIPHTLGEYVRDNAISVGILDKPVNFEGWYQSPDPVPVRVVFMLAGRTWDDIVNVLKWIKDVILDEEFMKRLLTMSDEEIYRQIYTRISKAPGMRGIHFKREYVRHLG
# T117v2 = molecular target: T2, T117v2 (designed scaffold T117v2 with HIV-1 …); test: SPR; ProteOn XPR36, GLC sensor chip; antibody as ligand, monomeric scaffold as analyte; monovalent KD; details: both partners purified
# T2 construct: also called T117v2 scaffold; source: FreeStyle 293F, purified (IMAC, SEC)
# T2 chain: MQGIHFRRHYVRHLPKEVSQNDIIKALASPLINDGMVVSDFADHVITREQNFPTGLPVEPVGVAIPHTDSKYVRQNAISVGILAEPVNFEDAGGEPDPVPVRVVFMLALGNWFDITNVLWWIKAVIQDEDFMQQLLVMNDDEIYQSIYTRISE
# 10E8-GT4 = molecular target: T3, 10E8-GT4 (synthetic construct (T117-based HIV-1 …)); test: as above; details: both partners purified
# T3 construct: source: FreeStyle 293F, purified (IMAC, SEC)
# T3 chain: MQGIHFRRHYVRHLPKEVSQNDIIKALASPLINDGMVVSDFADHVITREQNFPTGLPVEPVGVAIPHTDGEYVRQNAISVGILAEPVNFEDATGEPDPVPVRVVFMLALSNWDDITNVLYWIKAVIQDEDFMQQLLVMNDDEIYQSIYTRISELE
# [2] = molecular target: T4, 10E8-GT10.2 epitope scaffold (designed scaffold 10E8-GT10.2 with …, N-linked glycosylation sites added (positions not given)); test: SPR; values told in the text, methods or extended data without a main figure; instrument not told (Carterra LSA, ProteOn XPR36 with GLC chip or Biacore 4000 with CM5 chip); details: both partners purified
# T4 chain: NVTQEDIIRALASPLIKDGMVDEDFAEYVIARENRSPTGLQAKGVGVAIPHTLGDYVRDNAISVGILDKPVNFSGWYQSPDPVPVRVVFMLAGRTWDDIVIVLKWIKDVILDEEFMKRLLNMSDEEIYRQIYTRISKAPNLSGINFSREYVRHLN
# [3] = molecular target: T4, 10E8-GT10.2 epitope scaffold
# 10E8-B1 epitope scaffold [4] = molecular target: T5, 10E8-B1 epitope scaffold (synthetic construct (resurfaced …))
# T5 chain: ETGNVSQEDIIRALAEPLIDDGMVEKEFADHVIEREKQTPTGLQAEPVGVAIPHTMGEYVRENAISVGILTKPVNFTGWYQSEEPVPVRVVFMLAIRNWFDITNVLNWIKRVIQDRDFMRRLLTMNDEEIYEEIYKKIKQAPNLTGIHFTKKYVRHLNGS
# T117v2 epitope scaffold = molecular target: T6, T117v2 epitope scaffold (designed scaffold T117v2 with HIV-1 …); test: SPR; values told in the text, methods or extended data without a main figure; instrument not told (Carterra LSA, ProteOn XPR36 with GLC chip or Biacore 4000 with CM5 chip); details: both partners purified
# T6 chain: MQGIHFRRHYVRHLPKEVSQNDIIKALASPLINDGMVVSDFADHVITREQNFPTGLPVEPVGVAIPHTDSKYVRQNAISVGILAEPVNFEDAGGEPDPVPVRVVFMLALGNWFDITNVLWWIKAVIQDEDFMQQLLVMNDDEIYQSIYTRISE
# 10E8-B1 epitope scaffold [5] = molecular target: T5, 10E8-B1 epitope scaffold; test: SPR; Carterra LSA, HC30M or CMDP chips; antibodies as ligands held by an amine-coupled capture antibody, scaffolds as analytes (monovalent Kd); 1x HBS-EP+ pH 7.4 with 1 mg/ml bovine serum albumin; Langmuir model; values of the main text figures; details: both partners purified
# [6] = molecular target: T7, 10E8-GT12 epitope scaffold (synthetic construct (HIV-1 MPER graft …, N-linked glycosylation sites added (positions not given)))
# T7 chain: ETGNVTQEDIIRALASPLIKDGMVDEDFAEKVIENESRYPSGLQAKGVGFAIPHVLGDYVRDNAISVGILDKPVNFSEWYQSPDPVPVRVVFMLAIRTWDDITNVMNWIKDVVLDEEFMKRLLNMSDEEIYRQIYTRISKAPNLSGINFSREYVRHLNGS
binder,measurement,setting,value
B1,Kd,[1],~600 nM
B2,Kd,T117v2,17000 nM
same,koff,T117v2,0.11 s⁻¹
same,kon,T117v2,6600 M⁻¹ s⁻¹
B3,Kd,10E8-GT4,250 nM
same,koff,10E8-GT4,25 s⁻¹
same,kon,10E8-GT4,1e+08 M⁻¹ s⁻¹
B4,Kd,[2],4.8 nM
B5,Kd,[3],0.842 nM
same,Kd,10E8-B1 epitope scaffold [4],1010 nM
B6,Kd,T117v2 epitope scaffold,0.39 nM
same,Kd,10E8-B1 epitope scaffold [5],0.08 nM
B7,Kd,T117v2,0.94 nM
same,Kd,10E8-GT4,9.5 nM
B8,Kd,[6],1140 nM
B9,Kd,[3],1.45 nM
same,Kd,10E8-B1 epitope scaffold [4],6420 nM
B10,Kd,[3],0.579 nM
same,Kd,10E8-B1 epitope scaffold [4],415 nM

# Reference: article PMC11147780, “Vaccination induces broadly neutralizing antibody precursors to HIV gp41” (Nature Immunology, 2024)
